Reference: US20240261333A1 (published 2024)
Each block holds one binder with its values, some of them ahead of it.

Experiments:
Assay in all cases: co-IP with anti-FLAG, N-FLAG B3GNT2, mass spectrometry
HNRNPM = biological target: T1, HNRNPM (human, UniProt P52272 2-730)
T1 construct: also called NP_005959.2 (+1)
T1 sequence (looked up): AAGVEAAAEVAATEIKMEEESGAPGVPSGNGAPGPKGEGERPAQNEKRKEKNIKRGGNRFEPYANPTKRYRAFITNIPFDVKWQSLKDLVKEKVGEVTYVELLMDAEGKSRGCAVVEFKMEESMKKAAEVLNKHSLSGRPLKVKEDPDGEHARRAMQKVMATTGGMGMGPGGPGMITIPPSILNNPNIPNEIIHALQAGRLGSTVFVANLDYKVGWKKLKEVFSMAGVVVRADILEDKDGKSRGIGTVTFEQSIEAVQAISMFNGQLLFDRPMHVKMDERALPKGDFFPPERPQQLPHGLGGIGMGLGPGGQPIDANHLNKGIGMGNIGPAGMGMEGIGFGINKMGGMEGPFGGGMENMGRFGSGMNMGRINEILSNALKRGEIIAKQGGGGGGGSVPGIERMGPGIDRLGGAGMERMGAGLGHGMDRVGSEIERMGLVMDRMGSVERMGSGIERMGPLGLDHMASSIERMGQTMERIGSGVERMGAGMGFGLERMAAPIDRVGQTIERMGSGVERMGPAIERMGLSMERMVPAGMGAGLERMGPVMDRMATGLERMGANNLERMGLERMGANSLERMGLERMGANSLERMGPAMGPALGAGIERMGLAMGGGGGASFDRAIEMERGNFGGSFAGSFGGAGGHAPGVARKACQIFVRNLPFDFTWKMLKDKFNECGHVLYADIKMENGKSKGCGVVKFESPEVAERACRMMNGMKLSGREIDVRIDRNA

GBF1 = biological target: T2, GBF1 (human, UniProt Q92538 1-1860, limits assumed)
T2 construct: also called NP_001186307.1 (+13)

IMMT = biological target: T3, IMMT (human, UniProt Q16891-4 34-757, limits assumed)
T3 construct: also called NP_001093639.1 (+3)
T3 sequence (looked up): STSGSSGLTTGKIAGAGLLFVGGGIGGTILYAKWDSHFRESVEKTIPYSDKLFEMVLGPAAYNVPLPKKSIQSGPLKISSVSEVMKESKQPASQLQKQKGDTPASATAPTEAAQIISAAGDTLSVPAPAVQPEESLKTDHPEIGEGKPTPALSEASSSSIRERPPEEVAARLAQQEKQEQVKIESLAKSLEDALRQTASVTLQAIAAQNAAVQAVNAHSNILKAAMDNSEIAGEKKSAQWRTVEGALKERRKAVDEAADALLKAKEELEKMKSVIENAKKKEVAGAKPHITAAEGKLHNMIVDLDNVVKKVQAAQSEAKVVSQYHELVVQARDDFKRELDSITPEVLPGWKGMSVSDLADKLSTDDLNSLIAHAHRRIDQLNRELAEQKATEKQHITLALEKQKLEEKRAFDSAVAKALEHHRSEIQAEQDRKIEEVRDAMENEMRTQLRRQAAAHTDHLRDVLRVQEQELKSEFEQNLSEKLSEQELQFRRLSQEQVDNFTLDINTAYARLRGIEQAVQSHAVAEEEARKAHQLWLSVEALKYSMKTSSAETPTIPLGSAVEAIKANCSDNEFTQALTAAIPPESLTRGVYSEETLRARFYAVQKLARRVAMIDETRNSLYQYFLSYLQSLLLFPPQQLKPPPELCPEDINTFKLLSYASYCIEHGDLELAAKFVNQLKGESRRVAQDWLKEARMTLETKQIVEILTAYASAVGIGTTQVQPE

RPS20 = RPS20 (human, UniProt P60866 2-119)
RUVBL2 = biological target: T4, RUVBL2 (human, UniProt Q9Y230 2-463)
T4 construct: also called NP_006657.1
T4 sequence (Q9Y230 2-463 limits assumed): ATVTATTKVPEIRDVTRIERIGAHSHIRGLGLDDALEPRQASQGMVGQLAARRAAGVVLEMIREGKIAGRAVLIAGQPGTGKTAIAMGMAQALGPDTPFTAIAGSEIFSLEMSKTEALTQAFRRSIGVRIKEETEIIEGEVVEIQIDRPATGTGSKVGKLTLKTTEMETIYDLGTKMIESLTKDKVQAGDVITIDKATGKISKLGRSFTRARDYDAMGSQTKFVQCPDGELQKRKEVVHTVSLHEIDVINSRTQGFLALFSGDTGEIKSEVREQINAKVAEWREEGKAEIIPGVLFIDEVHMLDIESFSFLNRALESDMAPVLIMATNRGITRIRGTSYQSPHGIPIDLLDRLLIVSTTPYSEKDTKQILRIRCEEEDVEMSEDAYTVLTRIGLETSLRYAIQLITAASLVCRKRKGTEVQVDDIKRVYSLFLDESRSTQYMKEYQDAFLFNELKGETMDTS

T2 sequence (Q92538 whole entry): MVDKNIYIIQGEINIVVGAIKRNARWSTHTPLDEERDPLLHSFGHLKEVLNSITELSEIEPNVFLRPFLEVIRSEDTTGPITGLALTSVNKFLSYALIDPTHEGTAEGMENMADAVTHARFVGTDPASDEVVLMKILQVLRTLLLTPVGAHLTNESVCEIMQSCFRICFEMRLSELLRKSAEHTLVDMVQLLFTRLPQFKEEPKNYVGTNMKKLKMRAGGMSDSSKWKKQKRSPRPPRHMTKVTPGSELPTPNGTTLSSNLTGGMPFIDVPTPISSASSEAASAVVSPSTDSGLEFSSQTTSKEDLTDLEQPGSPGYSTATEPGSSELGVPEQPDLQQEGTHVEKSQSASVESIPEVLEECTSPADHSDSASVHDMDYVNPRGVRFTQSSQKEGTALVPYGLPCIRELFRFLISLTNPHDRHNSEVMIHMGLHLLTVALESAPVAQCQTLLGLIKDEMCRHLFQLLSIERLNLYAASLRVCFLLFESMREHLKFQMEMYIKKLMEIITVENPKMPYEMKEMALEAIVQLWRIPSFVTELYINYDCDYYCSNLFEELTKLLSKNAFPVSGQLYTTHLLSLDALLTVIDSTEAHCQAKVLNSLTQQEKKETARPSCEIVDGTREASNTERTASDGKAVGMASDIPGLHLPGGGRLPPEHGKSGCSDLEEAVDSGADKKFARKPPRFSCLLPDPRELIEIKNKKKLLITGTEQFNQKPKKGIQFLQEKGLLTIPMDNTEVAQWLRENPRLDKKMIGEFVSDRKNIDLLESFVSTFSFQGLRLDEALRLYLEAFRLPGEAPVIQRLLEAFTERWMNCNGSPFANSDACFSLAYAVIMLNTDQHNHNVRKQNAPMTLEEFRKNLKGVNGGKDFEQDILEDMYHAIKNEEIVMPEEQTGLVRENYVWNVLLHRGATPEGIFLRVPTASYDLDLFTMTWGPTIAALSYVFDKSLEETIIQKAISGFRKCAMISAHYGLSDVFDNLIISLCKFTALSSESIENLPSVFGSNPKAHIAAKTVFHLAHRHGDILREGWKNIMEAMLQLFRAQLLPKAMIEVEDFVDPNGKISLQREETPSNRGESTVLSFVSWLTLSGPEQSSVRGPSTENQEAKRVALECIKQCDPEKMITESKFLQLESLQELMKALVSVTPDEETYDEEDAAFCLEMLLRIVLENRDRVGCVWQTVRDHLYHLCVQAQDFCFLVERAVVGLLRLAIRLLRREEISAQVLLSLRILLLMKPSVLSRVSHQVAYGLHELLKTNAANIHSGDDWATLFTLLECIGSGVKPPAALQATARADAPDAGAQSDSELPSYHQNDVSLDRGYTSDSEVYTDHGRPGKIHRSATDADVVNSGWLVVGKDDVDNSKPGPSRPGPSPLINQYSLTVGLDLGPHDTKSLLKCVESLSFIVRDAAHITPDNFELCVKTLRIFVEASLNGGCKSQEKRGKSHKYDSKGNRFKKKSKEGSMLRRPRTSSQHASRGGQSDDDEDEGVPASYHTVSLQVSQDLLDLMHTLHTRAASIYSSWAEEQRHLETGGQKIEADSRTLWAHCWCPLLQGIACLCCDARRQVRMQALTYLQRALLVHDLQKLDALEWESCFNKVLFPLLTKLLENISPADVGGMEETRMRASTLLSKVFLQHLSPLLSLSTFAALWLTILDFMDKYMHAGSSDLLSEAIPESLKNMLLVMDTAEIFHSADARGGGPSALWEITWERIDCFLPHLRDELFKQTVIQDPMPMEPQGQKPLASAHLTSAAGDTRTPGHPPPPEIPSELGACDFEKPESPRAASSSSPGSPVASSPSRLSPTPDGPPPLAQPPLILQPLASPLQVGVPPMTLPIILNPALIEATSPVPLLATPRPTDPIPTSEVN

- co-IP mass spectrometry count (HNRNPM): 6
- co-IP mass spectrometry count (GBF1): 0
- co-IP mass spectrometry count (IMMT): 23
B1: N-terminal FLAG tagged B3GNT2 (enzyme, human, UniProt Q9NY97 1-397, looked up)
chain: MSVGRRRIKLLGILMMANVFIYFIMEVSKSSSQEKNGKGEVIIPKEKFWKISTPPEAYWNREQEKLNRQYNPILSMLTNQTGEAGRLSNISHLNYCEPDLRVTSVVTGFNNLPDRFKDFLLYLRCRNYSLLIDQPDKCAKKPFLLLAIKSLTPHFARRQAIRESWGQESNAGNQTVVRVFLLGQTPPEDNHPDLSDMLKFESEKHQDILMWNYRDTFFNLSLKEVLFLRWVSTSCPDTEFVFKGDDDVFVNTHHILNYLNSLSKTKAKDLFIGDVIHNAGPHRDKKLKYYIPEVVYSGLYPPYAGGGGFLYSGHLALRLYHITDQVHLYPIDDVYTGMCLQKLGLVPEKHKGFRTFDIEEKNKNNICSYVDLMLVHSRKPQEMIDIWSQLQSAHLKC
notes: FLAG-tagged ORF overexpressed in cells; pulled down from lysate with mouse anti-FLAG; also called N-FLAG B3GNT2; N-term FLAG; not shown: N-terminal FLAG tag

- co-IP/MS count, N-term FLAG (RPS20): 4
- co-IP/MS count, N-term FLAG (RUVBL2): 0
B2: N-terminal FLAG tagged B3GNT2 (enzyme, human, UniProt Q9NY97 1-397, looked up)
chain: B1 chain
notes: FLAG-tagged ORF overexpressed in A375 cells; pulled down from the lysate with mouse anti-FLAG; also called N-FLAG B3GNT2; N-term FLAG; not shown: N-terminal FLAG tag
